Measured values reported in patent US20140011214A1.

Legend:
[1] = molecular target: Antiparallel leucine zipper partner peptide Z′ fused to the C-terminal fragment of superpositive GFP (CspGFP, amino acids 158-231), expressed from pMRBAD-Z′-CspGFP; test: cell-based or functional assay
[2] = molecular target: Antiparallel leucine zipper partner peptide Z′ fused to the C-terminal fragment of the stabilized GFP variant sg100 (Csg100GFP), expressed from pMRBAD-Z′-Csg100GFP; test: cell-based or functional assay

cell fluorescence 1 hour after induction at 25° C., against split-frGFP Z/Z′ fusions (% more fluorescent) [1] | cell fluorescence after 24 hours at 37° C., against split-frGFP Z/Z′ fusions (% more fluorescent) [1] | maximum mean cell fluorescence, 12 hours at 25° C., against split-frGFP Z/Z′ fusions [1] | mean cell fluorescence (flow cytometry), 1 hour after induction at 25° C. [1] | mean cell fluorescence (flow cytometry), 2 hours after induction at 25° C. [1] | mean cell fluorescence (flow cytometry), 3 hours after induction at 25° C. [1] | mean cellular fluorescence (flow cytometry) in E. coli after 12 hours at 25° C., compared to uninduced cells [1] | mean cell fluorescence (flow cytometry), 3 hours after induction at 25° C. [2] | mean cellular fluorescence (flow cytometry) in E. coli after 12 hours at 25° C., compared to uninduced cells [2] | Substance
34 | 24 | 22 % brighter | 5 fold | 15 fold | 28 fold | 75 fold | – | – | N-terminal fragment of superpositive GFP (NspGFP, amino acids 1-157) fused to antiparallel leucine zipper peptide Z, expressed from pET11a-Z-NspGFP
– | – | – | – | – | – | – | 1.2 fold | 2.3 fold | N-terminal fragment of the stabilized GFP variant sg100 (Nsg100GFP) fused to antiparallel leucine zipper peptide Z, expressed from pET11a-Z-Nsg100GFP
